The Human Domainome abundance scans (Beltran et al. 2025)

B1: Peroxisome proliferator-activated receptor delta, residues 71 to 145; numbered along this chain, Q03181 (parent)
chain: NMECRVCGDKASGFHYGVHACEGCKGFFRRTIRMKLEYEKCERSCKIQKKNRNKCQYCRFQKCLALGMSHNAIRF

Variants of: B1
Experiment: abundance fitness (aPCA) (normalised: wild type 0, dead -1); higher = more abundant; growth selection in yeast, the domain comes from the species named
Conditions: Homo sapiens

Abundance fitness of substitutions, site by site:
E37: I -0.069 | P -0.559 | R -0.069 | C 0.011 | W -0.311 | N 0.014 | D -0.034 | T -0.121
M34: H 0.047 | L 0.006 | V -0.577 | C -0.032 | G -0.033 | E 0.118 | K -0.074 | T -0.36 | I -0.817 | P -0.602 | D 0.192 | Q 0.136 | R -0.161 | S -0.097 | W -0.063 | A -0.112
Y38: V -0.74 | E -0.803 | N -0.72 | I -0.483 | S -0.868 | P -0.758 | R -0.846 | T -0.607 | K -0.776 | H -0.718 | A -0.738 | M -0.631 | L -0.544 | C -0.741 | W -0.397 | Q -1.02
K46: T 0.05 | Y -0.051 | S 0.006 | C -0.046 | E 0.124 | F 0.015 | M 0.066 | W -0.153 | P 0.037 | I 0.12 | V 0.023 | Q 0.106 | D 0.142 | R -0.037 | A 0.007 | N 0.029 | L 0.022 | H 0.047
L36: S -0.235 | F -0.162 | H -0.151 | P -0.374 | E -0.109 | K -0.165 | T -0.139 | G -0.224 | D -0.461 | C -0.13 | Q -0.222 | M -0.05 | Y -0.047 | R -0.26 | A -0.135
K49: M -0.065 | G 0.202 | L 0.066 | W 0.006 | S -0.207 | F -0.045 | H 0.602 | V 0.066 | E 0.144 | A 0 | T 0.023
E39: W -0.518 | H -0.336 | I -0.191 | K 0.017 | Y -0.447 | R -0.224 | L -0.229 | G -0.221 | S -0.094 | Q -0.082 | C -0.586 | A -0.057 | P 0.072 | N -0.222 | V -0.061 | D -0.063 | T -0.052 | M -0.167
I32: L -0.095 | E -0.531 | D -0.5 | A -0.221 | M -0.142 | P -0.869 | R -0.514 | G -0.677 | N -0.617 | Y -0.133 | T -0.107 | H -0.405 | Q -0.365 | C -0.234 | F -0.185 | S -0.464
K50: A 0.06 | R -0.06 | V -0.129 | C -0.164 | N 0.147 | T -0.018 | F 0.07 | D 0.094 | Q 0.077 | S -0.046 | P -0.089 | Y -0.295 | M 0.034 | L -0.069 | W -0.056 | I 0.132 | E 0.111
E42: V -0.074 | G -0.135 | A -0.179 | T -0.117 | Q -0.104 | S -0.117 | R -0.367 | N -0.335 | D -0.16 | I -0.304 | F -0.139 | Y -0.093 | P -0.25 | L -0.195 | W -0.295 | H -0.195 | M -0.051 | K -0.209 | C -0.394
R52: P 0.128 | F -0.155 | I 0.012 | C -0.241 | L -0.087 | K 0.207 | S -0.022 | E -0.037 | M -0.078 | N -0.084 | D 0.075 | H -0.307 | Q -0.03
